Experimental data reported in US20220396617A1.

Target: human TIGIT expressed on HEK293A cells (human) (UniProt Q495A1)
Assay: cell-based or functional assay

Chain of human TIGIT expressed on HEK293A cells (human) (Q495A1 22-244 limits assumed): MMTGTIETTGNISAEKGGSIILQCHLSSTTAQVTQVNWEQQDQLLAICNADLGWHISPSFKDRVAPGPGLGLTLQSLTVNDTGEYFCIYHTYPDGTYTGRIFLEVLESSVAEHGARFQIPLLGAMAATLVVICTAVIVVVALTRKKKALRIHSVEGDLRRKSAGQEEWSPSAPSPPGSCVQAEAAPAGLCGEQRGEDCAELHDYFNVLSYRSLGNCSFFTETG

B1: Etigilimab (antibody, INN chains, looked up, human IgG1, V domains shown)
VH: QVQLQESGPGLVKPSETLSLTCAVSGYSITSDYAWNWIRQPPGKGLEWIGYISYSGSTSYNPSLRSRVTISRDTSKNQFFLKLSSVTAADTAVYYCARRQVGLGFAYWGQGTLVTVSS
VL: DIQMTQSPSSLSASVGDRVTITCKASQDVSTAVAWYQQKPGKAPKLLIYSASYRYTGVPSRFSGSGSGTDFTFTISSLQPEDIATYYCQQHYSTPWTFGQGTKVEIK
  NK92-mediated ADCC against HEK293A/human TIGIT cells, EC50: 23.6 pM
